Test results: US9926355

Biological target: binary complex of FGFR1c ligand-binding domain with αKlotho ectodomain (murine; human) (UniProt O35082)
Experiment: SPR; immobilized FGF23, αKlotho-FGFR1c complex compared with FGFR1c ligand-binding domain alone (FIGS. 10D and 10E)

binary complex of FGFR1c ligand-binding domain with αKlotho ectodomain (murine; human), sequence (O35082 35-982, form in doubt, chain 1 of 2): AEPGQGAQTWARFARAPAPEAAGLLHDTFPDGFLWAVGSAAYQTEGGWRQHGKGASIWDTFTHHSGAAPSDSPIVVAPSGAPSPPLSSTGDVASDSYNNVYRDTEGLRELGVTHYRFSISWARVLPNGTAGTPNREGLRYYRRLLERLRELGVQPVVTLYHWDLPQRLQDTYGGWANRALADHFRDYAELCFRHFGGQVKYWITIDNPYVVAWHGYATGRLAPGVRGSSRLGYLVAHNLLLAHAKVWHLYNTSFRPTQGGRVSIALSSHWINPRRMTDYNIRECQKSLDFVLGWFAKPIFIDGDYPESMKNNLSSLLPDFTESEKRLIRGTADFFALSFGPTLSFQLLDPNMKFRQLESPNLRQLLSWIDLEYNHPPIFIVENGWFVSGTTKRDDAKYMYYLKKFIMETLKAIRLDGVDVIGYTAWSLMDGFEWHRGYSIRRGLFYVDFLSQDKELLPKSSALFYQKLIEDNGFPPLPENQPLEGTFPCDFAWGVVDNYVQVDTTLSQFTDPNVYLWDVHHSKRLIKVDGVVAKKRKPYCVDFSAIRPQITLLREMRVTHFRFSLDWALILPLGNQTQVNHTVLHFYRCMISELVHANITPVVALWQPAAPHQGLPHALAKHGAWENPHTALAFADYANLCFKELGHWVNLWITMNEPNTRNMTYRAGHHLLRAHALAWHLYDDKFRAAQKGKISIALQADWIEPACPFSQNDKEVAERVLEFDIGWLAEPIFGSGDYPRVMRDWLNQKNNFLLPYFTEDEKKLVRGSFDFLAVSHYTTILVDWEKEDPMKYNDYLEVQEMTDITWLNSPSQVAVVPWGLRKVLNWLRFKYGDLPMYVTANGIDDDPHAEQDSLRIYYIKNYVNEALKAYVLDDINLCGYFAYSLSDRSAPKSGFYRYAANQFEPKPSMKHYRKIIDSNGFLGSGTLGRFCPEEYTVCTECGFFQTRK
binary complex of FGFR1c ligand-binding domain with αKlotho ectodomain (murine; human), sequence (P11362 142-365, form in doubt, chain 2 of 2, further chain): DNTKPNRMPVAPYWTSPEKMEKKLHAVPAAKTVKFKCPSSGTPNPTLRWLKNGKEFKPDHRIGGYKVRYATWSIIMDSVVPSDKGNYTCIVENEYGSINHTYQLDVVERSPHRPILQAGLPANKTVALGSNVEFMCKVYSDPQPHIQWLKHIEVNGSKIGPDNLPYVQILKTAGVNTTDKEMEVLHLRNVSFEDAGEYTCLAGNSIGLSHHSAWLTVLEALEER

B1: N-terminally hexahistidine-tagged, mature form of human FGF23 (Y25 to I251), R176Q/R179Q (ligand, not shown: small tags and cut ends)
chain: YPNASPLLGSSWGGLIHLYTATARNSYHLQIHKNGHVDGAPHQTIYSALMIRSEDAGFVVITGVMSRRYLCMDFRGNIFGSHYFDPENCRFQHQTLENGYDVYHSPQYHFLVSLGRAKRAFLPGMNPPPYSQFLSRRNEIPLIHFNTPIPRQHTQSAEDDSERDPLNVLKPRARMTPAPASCSQELPSAEDNSPMASDPLGVVRGGRVNTHAGGTGPEGCRPFAKFI
B1 was tested, and the fold enhancement of affinity against FGFR1c alone was > 20 fold.
